From patent US20230257454A1 (STAIDSON BEIJING BIOPHARMACEUTICALS, published 2023) come the findings set out here.

One experiment concerns the target T1, C5a-K20A.
T1 single chain: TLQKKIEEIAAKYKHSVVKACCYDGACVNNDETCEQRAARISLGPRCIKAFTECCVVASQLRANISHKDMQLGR
In words: ELISA on the coated C5a protein, antibody titrated, OD410. Background: An ELISA detects its analyte on a solid surface through an enzyme-linked reagent.

Another experiment deals with T2, C5a-Y23A.
T2 single chain: T1 single chain with A20K, Y23A
The experiment is described as above.

The next experiment has as its target T3, C5a-C27A.
T3 single chain: T1 single chain with A20K, C27A
The experiment is described as above.

The target of another experiment is T4, C5a-V28A.
T4 single chain: T1 single chain with A20K, V28A
The experiment is described as above.

Another experiment concerns the target T5, C5a-V28F.
T5 single chain: T1 single chain with A20K, V28F
The experiment is described as above.

A further experiment deals with T6, C5a-V28R.
T6 single chain: T1 single chain with A20K, V28R
Described as above.

The target of the next experiment is T7, C5a-N29A.
T7 single chain: T1 single chain with A20K, N29A
The experiment is described as above.

The target of another experiment is T8, C5a-Y13A.
T8 single chain: T1 single chain with Y13A, A20K
The description is as above.

The target in another experiment is T9, C5a-N30A.
T9 single chain: T1 single chain with A20K, N30A
The description is as above.

In the next experiment the target is T10, C5a-T33A.
T10 single chain: T1 single chain with A20K, T33A
The experiment is described as above.

The target of another experiment is T11, C5a-E35A.
T11 single chain: T1 single chain with A20K, E35A
Described as above.

The target of the next experiment is T12, C5a-Q36A.
T12 single chain: T1 single chain with A20K, Q36A
The description is as above.

For the next experiment, the target named is T13, C5a-R62A.
T13 single chain: T1 single chain with A20K, R62A
The description is as above.

The target in a further experiment is T14, C5a-A63R.
T14 single chain: T1 single chain with A20K, A63R
The description is as above.

The next experiment concerns the target T15, C5a-S66R.
T15 single chain: T1 single chain with A20K, S66R
The description is as above.

A further experiment addresses T16, C5a-H67A.
T16 single chain: T1 single chain with A20K, H67A
The experiment is described as above.

The next experiment addresses T17, C5a-K68A.
T17 single chain: T1 single chain with A20K, K68A
Described as above.

The next experiment concerns the target T18, C5a-M70A.
T18 single chain: T1 single chain with A20K, M70A
The description is as above.

A further experiment deals with T19, C5a-Q71A.
T19 single chain: T1 single chain with A20K, Q71A
The experiment is described as above.

Experiment [1] concerns the target T20, human C5a (source not stated) (human, UniProt P01031 678-751).
T20 construct: C5a as used in the ROS release assay (5 nM) and injected in the mouse chemotaxis model
T20 sequence: T1 single chain with A20K
In words: ELISA on the coated protein, biotinylated Cab42 titrated, SA-HRP, OD410.

Where a chain is given by its changes, count along the chain named.

B1: Cab42-IgG1 (antibody, V domains shown)
VH: EMQLVESGGGLVQPGGSLRLSCAASGFTFSDYYMQWVRQAPGKGPEWVGLIRNKAVGETTQYAASVKGRFTISRDDSKNSVYLQMNSLKTEDTAVYYCVSRAGPPGLSWGQGVLVTVSS
VL: DIVMTQSPLSLPVTPGEPASISCRSSQSLLASDAYNYIDWYLQKPGQSPQLLIYGGSNRASGVPDRFSGSGSGTDFTLKISRVEAEDVGVYFCLQHRALPPTFGQGTKLEIK
notes: Full-length human IgG1; It was biotinylated in the peptide-Fc ELISA
Regarding B1, the binding result with C5a-K20A, with C5a-Y23A, in the experiment with C5a-C27A, with C5a-V28A, with C5a-V28F and with C5a-V28R was “binds” in each case. The binding result with C5a-N29A, in the experiment with C5a-Y13A, with C5a-N30A, in the experiment with C5a-T33A, with C5a-E35A and with C5a-Q36A was “binds” each time. Also, the binding result with C5a-R62A, in the experiment with C5a-A63R, in the experiment with C5a-S66R, in the experiment with C5a-H67A, with C5a-K68A and in the experiment with C5a-M70A was “binds” in each case. Moreover, the binding result with C5a-Q71A is “binds”. Moreover, the “EC50 (read off the curve)” value in experiment [1] is approximately 30 ng/w.
